According to IntAct's records for PubMed 23202584:

B1: Ubiquitin-like protein ATG12 (Homo sapiens), O94817 (parent)
chain: MAEEPQSVLQLPTSIAAGGEGLTDVSPETTTPEPPSSAAVSPGTEEPAGDTKKKIDILLKAVGDTPIMKTKKWAVERTRTIQGLIDFIKKFLKLVASEQLFIYVNQSFAPSPDQEVGTLYECFGSDGKLVLHYCKSQAWG

Variants of: B1
Conditions: with atg3_mouse Atg3, Q9CPX6
Chain of atg3_mouse Atg3, Q9CPX6 (Q9CPX6 whole entry): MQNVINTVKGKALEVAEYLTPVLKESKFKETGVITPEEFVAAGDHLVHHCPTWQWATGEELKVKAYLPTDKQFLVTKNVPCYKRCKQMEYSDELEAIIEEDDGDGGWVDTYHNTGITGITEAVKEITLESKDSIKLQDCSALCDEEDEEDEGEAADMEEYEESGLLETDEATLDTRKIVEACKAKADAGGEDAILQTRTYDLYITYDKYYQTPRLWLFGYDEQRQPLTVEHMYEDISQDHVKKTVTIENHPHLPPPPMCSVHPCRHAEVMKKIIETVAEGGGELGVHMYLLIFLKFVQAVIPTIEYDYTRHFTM

Row | Variant | effect of a mutation on the interaction
1 | MAEEPQSVLQLPTSIAAGGEGLTDVSPETTTPEPPSSAAVSPGTEEPAGDTKKKIDILLKAVGDTPIMKTKKAAVERTRTIQGLIDFIKKFLKLVASEQLFIYVNQSFAPSPDQEVGTLYECFGSDGKLVLHYCKSQAWG [W73A] | disrupting interaction strength
2 | MAEEPQSVLQLPTSIAAGGEGLTDVSPETTTPEPPSSAAVSPGTEEPAGDTKKDIDILLKAVGDTPIMKTKKWAVERTRTIQGLIDFIKKFLKLVASEQLFIYVNQSFAPSPDQEVGTLYECFGSDGKLVLHYCKSQAWG [K54D] | disrupting interaction strength
3 | MAEEPQSVLQLPTSIAAGGEGLTDVSPETTTPEPPSSAAVSPGTEEPAGDTKKKIDILLKAVGDTPIMKTKDWAVERTRTIQGLIDFIKKFLKLVASEQLFIYVNQSFAPSPDQEVGTLYECFGSDGKLVLHYCKSQAWG [K72D] | disrupting interaction strength
